Read-outs that look alike come from different tables or passages of the source. Bounds are passed on as bounds.

The target in test [1] is WWOX WW1-WW2 tandem domain (amino acids 16-91) (human). In words: NMR titration.
For test [2] the target is unchanged. The test can be described thus: ITC. (In ITC the heat of successive injections is recorded.)
The target in test [3] is T1, WWOX WW2 (amino acids 57-91) (human).
T1 chain: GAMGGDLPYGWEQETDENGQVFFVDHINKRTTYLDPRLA
In words: ITC.

Test [4] deals with T2, WWOX WW1 (amino acids 16-50) (human).
T2 chain: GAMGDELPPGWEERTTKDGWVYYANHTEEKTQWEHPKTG
In words: ITC.

In test [5] the target is T3, WWOX WW1-WW2 tandem domain (amino acids 16-91) (human).
T3 chain: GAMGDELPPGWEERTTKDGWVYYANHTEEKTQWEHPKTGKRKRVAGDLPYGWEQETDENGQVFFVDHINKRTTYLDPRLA
In words: NMR titration.

Test [6] deals with T3, WWOX WW1-WW2 tandem domain (amino acids …). The test can be described thus: NMR titration.
The target is the same in test [7]. The test can be described thus: ITC.

One may read the Kd as the concentration at which binding is half-saturated. A low value points to tighter binding. In the case of ErbB4 peptide PY2 (1048-1060), in test [1], the KD WW1 (based on W44) is 15 µM. Further, the dissociation constant (Kd) in test [2] was over 100 µM.

As to ErbB4 peptide PY3 (1293-1305), in test [1], the KD WW1 (based on W44) was determined as 10 µM and the KD WW2 (based on V73) was over 1000 µM. In test [2], this molecule came in with a dissociation constant (Kd) of 30 µM and a dH of -12.1 kcal/mol.

ErbB4 peptide PY1 (1027-1039): the KD WW1 (based on W44) in test [1] is 21 µM. The same molecule had a Kd in test [2] of over 100 µM.

Regarding GTVLPPPPYRHRN [ErbB4 peptide PY3 (1293-1305)], the dissociation constant Kd was over 200 µM in test [3] and 78 µM in test [4]. For the same molecule, the dH in test [4] is -23 kcal/mol.

On to AFNIPPPIYTSRARIDSNRSEIGHSPPPAYTPMS [ErbB4 double-motif peptide PY1PY2 (1027-1060, natural linker)], for which, in test [5], the “KD WW2 (based on V73)” value was about 1000 µM. Further, the “KD WW1 (based on W44)” value in test [6] amounted to 10 ± 2 µM. In test [7], this molecule gave a Kd of 14 µM and a dH of -39 kcal/mol.

As for GTVLPPPPYRHRNGGGGGTVLPPPPYRHRN [ErbB4 double-motif peptide PY3PY3 (polyglycine linker)], in test [5], the “KD WW2 (based on V73)” value worked out at 40 ± 20 µM. Besides, the “KD WW1 (based on W44)” value in test [6] is 0.6 ± 0.3 µM. In test [7], binding was characterised by a dissociation constant (Kd) of 3.1 µM and the dH was -24.9 kcal/mol. For the same molecule, in test [4], the Kd was found to be 50 µM and the dH is -39 kcal/mol.

AFNIPPPIYTSRAGGGGGHSPPPAYTPMS [ErbB4 double-motif peptide PY1PY2S (natural linker replaced by polyglycine)]: the “KD WW2 (based on V73)” value in test [5] turned out to be 70 ± 20 µM. For the same molecule, the “KD WW1 (based on W44)” value in test [6] came to 2 ± 1 µM. In test [7], this molecule returned a Kd of 21 µM and a dH of -29 kcal/mol.

For AFNIPPPIYTSRAGGGGGTVLPPPPYRHRN [ErbB4 double-motif peptide PY1PY3 (polyglycine linker)], in test [5], the “KD WW2 (based on V73)” value worked out at 80 ± 20 µM. Moreover, the “KD WW1 (based on W44)” value in test [6] was determined as 6 ± 1 µM. Besides, in test [7], binding was characterised by a dissociation constant (Kd) of 8 µM and the dH was -22 kcal/mol.

For the origin of these results see paper PMC9293652 (The Journal of Biological Chemistry, 2022).
